Source: PMC13178787 (Nature, 2024)

B1: sarcospan (natural protein, mouse (endogenous in skeletal muscle), UniProt Q62147 1-216, looked up)
chain: MGRKPSPRAQELPEEEARTCCGCRFPLLLALLQLALGIAVTVLGFLMASISPSLLVRDTPFWAGSIVCVVAYLGLFMLCVSYQVDERTCVQFSMKVFYFLLSALGLMVCMLAVAFAAHHYSLLAQFTCETSLDSCQCKLPSSEPLSRAFVYRDVTDCTSVTGTFKLFLIIQMVLNLVCGLVCLLACFVMWKHRYQVFYVGVGLRSLMASDGQLPKA
B2: δ-sarcoglycan (natural protein, mouse (endogenous in skeletal muscle), UniProt P82347 1-289, looked up)
chain: MPQEQYSHHRSTMPSSEGPHIYKVGIYGWRKRCLYFFVLLLMILILVNLAMTIWILKVMNFTIDGMGNLRITEKGLKLEGDSEFLQPLYAKEIKSRPGNALYFKSARNVTVNILNDQTKVLTQLVTGPKAVEAYGKRFEVKTVSGKLLFSADDSEVVVGAERLRVLGAEGTVFPKSIETPNVRADPFKELRLESPTRSLVMEAPKGVEINAEAGNMEAICRSELRLESKDGEIKLDAAKIKLPRLPRGSYTPTGTRQKVFEVCVCANGRLFLSQAGTGSTCQINTSVCL
modifications: glycosylated at N108
B3: 6×His-tagged dystrobrevin (1–237) (domain or fragment, mouse, UniProt Q9D2N4 1-237, looked up)
chain: MIEDSGKRGNTMAERRQLFAEMRAQDLDRIRLSTYRTACKLRFVQKKCNLHLVDIWNVIEALRENALNNLDPNIELNVARLEAVLSTIFYQLNKRMPTTHQIHVEQSISLLLNFLLAAFDPEGHGKISVFAVKMALATLCGGKIMDKLRYIFSMISDSSGVMVYGRYDQFLREVLKLPTAVFEGPSFGYTEQSARSCFSQQKKVTLNGFLDTLMSDPPPQCLVWLPLLHRLANVENV
B4: β-sarcoglycan (natural protein, mouse (endogenous in skeletal muscle), UniProt P82349 1-320, looked up)
chain: MAAAAAAAAATEQQGSNGPVKKSMREKAVERRNVNKEHNSNFKAGYIPIDEDRLHKTGLRGRKGNLAICVIVLLFILAVINLLITLVIWAVIRIGPNGCDSMEFHESGLLRFKQVSDMGVIHPLYKSTVGGRRNENLVITGNNQPIVFQQGTTKLSVEKNKTSITSDIGMQFFDPRTHNILFSTDYETHEFHLPSGVKSLNVQKASTERITSNATSDLNIKVDGRAIVRGNEGVFIMGKTIEFHMGGDVELKAENSIILNGTVMVSPTRLPSSSSGDQSGSGDWVRYKLCMCADGTLFKVQVTGHNMGCQVSDNPCGNTH
modifications: glycosylated at N160, N213, N260
B5: dystrobrevin (natural protein, mouse (endogenous in skeletal muscle), UniProt Q9D2N4 1-746, looked up)
chain: MIEDSGKRGNTMAERRQLFAEMRAQDLDRIRLSTYRTACKLRFVQKKCNLHLVDIWNVIEALRENALNNLDPNIELNVARLEAVLSTIFYQLNKRMPTTHQIHVEQSISLLLNFLLAAFDPEGHGKISVFAVKMALATLCGGKIMDKLRYIFSMISDSSGVMVYGRYDQFLREVLKLPTAVFEGPSFGYTEQSARSCFSQQKKVTLNGFLDTLMSDPPPQCLVWLPLLHRLANVENVFHPVECSYCHSESMMGFRYRCQQCHNYQLCQDCFWRGHAGGSHSNQHQMKEYTSWKSPAKKLTNALSKSLSCASSREPLHPMFPDQPEKPLNLAHIVPPRPVTSMNDTLFSHSVPSSGSPFITRSSPPKDSEVEQNKMLARAAPAFLKGRGIQYSLNVADRLADEHVLIGLYVNMLRNDPPCMLESSNRLDEEHRLIARYAARLAAESSSSQPTQQRSAPDISFTIDANKQQRQLIAELENKNREILQEIQRLRVEHEQASQPTPEKAQQNPTLLAELRLLRQRKDELEQRMSALQESRRELMVQLEGLMKLLKEEELKQGTQGASSPRSSPSHTISRPIPMPIRSASACPTPTHTPQDSLTGVGGDVQEAFAQSSRRNLRSDLLVAADSITNTMSSLVKELNSEVASETESTVDSEFSRPQFEDLAPSPTSEKAFLAQIHSRKPGYIHGGAASTTHGDMVPEDGDPYTQPEDGNYENESVRQLENELQLEEYLKQKLQDEAYQVSLQG
B6: β-dystroglycan (natural protein, mouse (endogenous in skeletal muscle), UniProt Q62165 652-893, looked up)
chain: SIVVEWTNNTLPLEPCPKEQIIGLSRRIADENGKPRPAFSNALEPDFKALSIAVTGSGSCRHLQFIPVAPPSPGSSAAPATEVPDRDPEKSSEDDVYLHTVIPAVVVAAILLIAGIIAMICYRKKRKGKLTLEDQATFIKKGVPIIFADELDDSKPPPSSSMPLILQEEKAPLPPPEYPNQSMPETTPLNQDTVGEYTPLRDEDPNAPPYQPPPPFTAPMEGKGSRPKNMTPYRSPPPYVPP
modifications: glycosylated at N659

Experiments:
[1] = target: B6; test: cryo-EM structure
[2] = target: B4; test: cryo-EM structure
[3] = target: T1, GST-tagged dystrophin (3049–3299) (mouse, UniProt P11531 3049-3299); test: SEC
T1 sequence (looked up): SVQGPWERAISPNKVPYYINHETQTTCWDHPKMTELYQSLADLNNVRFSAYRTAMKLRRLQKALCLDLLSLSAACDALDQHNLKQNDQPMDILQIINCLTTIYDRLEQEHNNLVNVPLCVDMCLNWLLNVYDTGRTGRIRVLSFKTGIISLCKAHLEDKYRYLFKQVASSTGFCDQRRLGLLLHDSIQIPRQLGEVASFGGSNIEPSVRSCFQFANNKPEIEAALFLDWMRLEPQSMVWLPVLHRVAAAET

[4] = target: dystrophin (mouse (endogenous in skeletal muscle), UniProt P11531 1-3678); test: cryo-EM structure
dystrophin, sequence (P11531 whole entry): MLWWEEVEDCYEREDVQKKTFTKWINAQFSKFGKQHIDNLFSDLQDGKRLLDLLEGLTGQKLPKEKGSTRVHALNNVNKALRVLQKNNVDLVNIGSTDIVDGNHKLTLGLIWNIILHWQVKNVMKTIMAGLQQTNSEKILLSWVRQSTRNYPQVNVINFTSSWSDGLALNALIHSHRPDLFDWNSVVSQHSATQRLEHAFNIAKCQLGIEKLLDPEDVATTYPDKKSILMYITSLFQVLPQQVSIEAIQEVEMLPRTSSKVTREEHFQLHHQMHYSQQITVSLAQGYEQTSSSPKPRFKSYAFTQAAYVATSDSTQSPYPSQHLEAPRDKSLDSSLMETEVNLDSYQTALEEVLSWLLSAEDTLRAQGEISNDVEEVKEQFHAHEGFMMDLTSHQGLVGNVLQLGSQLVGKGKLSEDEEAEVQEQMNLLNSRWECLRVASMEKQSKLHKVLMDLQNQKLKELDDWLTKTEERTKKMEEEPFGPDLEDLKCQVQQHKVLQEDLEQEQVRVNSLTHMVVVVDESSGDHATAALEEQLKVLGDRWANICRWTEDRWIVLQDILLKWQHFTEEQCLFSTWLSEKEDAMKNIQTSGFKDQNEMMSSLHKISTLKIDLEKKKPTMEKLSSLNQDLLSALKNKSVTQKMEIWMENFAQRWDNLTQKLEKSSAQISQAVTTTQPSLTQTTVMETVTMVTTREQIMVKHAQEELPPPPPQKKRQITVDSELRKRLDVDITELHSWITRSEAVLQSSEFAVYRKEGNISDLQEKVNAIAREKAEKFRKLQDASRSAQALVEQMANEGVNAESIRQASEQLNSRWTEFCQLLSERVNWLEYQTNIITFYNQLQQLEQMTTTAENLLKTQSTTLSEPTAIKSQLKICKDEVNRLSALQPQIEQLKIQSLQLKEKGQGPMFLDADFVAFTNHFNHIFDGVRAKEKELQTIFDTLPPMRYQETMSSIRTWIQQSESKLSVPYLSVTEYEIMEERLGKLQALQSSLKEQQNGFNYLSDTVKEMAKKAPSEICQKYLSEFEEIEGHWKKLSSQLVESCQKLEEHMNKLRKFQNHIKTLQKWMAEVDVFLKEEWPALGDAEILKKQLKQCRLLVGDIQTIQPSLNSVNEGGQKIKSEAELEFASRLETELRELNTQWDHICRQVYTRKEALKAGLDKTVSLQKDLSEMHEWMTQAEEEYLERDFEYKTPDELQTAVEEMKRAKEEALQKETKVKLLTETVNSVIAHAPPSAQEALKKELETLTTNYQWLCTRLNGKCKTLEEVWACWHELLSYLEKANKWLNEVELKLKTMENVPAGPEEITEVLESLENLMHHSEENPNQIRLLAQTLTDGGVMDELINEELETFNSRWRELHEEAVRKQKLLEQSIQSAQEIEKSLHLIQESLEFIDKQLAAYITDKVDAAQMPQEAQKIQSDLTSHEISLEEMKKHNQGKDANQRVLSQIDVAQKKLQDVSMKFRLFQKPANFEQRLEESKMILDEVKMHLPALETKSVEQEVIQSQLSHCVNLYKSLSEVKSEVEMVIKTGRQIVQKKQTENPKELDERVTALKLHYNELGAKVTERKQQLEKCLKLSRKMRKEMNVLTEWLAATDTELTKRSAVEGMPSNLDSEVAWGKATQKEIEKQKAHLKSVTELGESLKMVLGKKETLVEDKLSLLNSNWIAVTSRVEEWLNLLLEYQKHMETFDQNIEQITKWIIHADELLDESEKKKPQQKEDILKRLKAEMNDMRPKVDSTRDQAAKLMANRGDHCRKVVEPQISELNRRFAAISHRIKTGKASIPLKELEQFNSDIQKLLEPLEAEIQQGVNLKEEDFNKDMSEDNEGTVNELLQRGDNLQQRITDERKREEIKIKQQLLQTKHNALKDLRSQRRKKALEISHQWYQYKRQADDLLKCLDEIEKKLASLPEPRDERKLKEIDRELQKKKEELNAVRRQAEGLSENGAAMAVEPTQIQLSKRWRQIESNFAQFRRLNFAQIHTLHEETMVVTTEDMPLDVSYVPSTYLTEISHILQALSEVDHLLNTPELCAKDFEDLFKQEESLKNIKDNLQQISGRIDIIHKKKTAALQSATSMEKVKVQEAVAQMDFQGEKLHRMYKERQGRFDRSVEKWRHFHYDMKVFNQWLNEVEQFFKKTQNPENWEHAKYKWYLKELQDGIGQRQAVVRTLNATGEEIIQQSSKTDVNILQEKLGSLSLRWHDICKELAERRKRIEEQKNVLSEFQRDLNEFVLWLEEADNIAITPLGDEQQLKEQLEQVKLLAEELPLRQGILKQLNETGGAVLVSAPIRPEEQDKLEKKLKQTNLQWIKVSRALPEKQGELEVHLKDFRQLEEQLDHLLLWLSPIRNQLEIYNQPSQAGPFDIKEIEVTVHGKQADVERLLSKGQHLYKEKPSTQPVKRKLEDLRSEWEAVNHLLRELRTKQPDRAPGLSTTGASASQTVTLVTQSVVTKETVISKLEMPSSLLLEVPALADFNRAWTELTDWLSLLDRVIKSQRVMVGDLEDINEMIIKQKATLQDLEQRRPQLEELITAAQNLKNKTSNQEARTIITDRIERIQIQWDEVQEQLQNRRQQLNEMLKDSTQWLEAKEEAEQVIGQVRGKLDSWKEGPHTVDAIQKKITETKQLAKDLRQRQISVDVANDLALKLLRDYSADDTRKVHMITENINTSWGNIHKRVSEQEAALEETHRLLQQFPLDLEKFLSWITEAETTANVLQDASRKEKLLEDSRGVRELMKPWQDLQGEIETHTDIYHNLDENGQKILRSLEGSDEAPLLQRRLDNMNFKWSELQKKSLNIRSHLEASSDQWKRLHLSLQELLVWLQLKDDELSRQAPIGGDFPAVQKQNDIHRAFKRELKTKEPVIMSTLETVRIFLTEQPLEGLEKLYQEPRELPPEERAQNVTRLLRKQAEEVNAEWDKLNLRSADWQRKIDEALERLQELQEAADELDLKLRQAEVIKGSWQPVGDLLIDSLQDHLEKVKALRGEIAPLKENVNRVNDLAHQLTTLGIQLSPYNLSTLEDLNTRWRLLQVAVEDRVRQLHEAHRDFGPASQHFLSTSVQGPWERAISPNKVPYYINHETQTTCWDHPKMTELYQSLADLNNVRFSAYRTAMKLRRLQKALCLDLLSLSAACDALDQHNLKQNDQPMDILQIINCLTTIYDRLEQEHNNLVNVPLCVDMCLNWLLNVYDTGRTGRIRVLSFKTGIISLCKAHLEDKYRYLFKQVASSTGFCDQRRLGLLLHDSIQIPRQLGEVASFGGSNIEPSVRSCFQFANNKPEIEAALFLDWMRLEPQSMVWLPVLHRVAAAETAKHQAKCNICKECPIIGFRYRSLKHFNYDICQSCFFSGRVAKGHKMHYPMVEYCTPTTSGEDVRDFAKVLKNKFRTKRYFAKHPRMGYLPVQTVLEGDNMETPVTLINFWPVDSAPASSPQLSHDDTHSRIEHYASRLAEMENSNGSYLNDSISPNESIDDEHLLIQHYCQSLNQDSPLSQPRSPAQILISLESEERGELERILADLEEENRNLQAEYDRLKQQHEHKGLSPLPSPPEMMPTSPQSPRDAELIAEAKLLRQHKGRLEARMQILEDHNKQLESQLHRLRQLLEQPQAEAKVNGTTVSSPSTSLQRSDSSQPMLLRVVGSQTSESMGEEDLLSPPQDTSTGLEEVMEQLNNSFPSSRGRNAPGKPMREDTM

Does B1 bind [1]?
Result: binds

Does B2 bind [2]?
Result: binds

Does B3 bind [3]?
Result: binds

Does B4 bind [4]?
Result: binds

Does B5 bind [4]?
Result: binds

Does B6 bind [4]?
Result: binds
